Measured values published in patent US20200087416A1 (Innovent, published 2020).

Experiments:
[1] = target: T1, human PCSK9 (PCSK9 antigen, SEQ ID NO. 53) (human, UniProt A8T644 31-152; Q8NBP7 153-692, Biotin-labelled on amines in the MSD-SET and sorting experiments; positions not given.); test: flow cytometry, PCSK9 left on CHO-LDLR cells (anti-His-FITC) after premix with 10 nM antibody
T1 construct: Biotin-labelled in MSD-SET; also called PCSK9-WT; PCSK9 protein

[2] = target: T1, human PCSK9 (PCSK9 antigen, SEQ ID NO. …); test: flow cytometry, PCSK9 left on CHO-LDLR cells (anti-His-FITC) after premix with 1 nM antibody
[3] = target: T1, human PCSK9 (PCSK9 antigen, SEQ ID NO. …); test: flow cytometry, PCSK9 left on CHO-LDLR cells (anti-His-FITC) after premix with 100 nM antibody
[4] = target: T1, human PCSK9 (PCSK9 antigen, SEQ ID NO. …); test: cell-based or functional assay
[5] = target: T1, human PCSK9 (PCSK9 antigen, SEQ ID NO. …); test: flow cytometry, PCSK9 left on CHO-LDLR cells (anti-His-FITC) after premix with 0.1 nM antibody
[6] = target: T2, murine PCSK-9 (murine, UniProt Q80W65 35-694); test: BLI (ForteBio), IgG on AHQ sensor, 100 nM antigen
T2 construct: also called mouse PCSK9

[7] = target: T1, human PCSK9 (PCSK9 antigen, SEQ ID NO. …); test: BLI (ForteBio), IgG on AHQ sensor, 100 nM antigen
[8] = target: T1, human PCSK9 (PCSK9 antigen, SEQ ID NO. …); test: flow cytometry, PCSK9 left on CHO-LDLR cells (anti-His-FITC) after premix with 1000 nM antibody
[9] = target: T1, human PCSK9 (PCSK9 antigen, SEQ ID NO. …); test: MSD-SET, Fab with biotin-PCSK9 in solution, IgG on plate, pH 6.0
[10] = target: T2, murine PCSK-9; test: MSD-SET, Fab with biotin-PCSK9 in solution, IgG on plate, pH 7.4
[11] = target: T1, human PCSK9 (PCSK9 antigen, SEQ ID NO. …); test: as above
Throughout, for BODIPY-LDL uptake by HepG2 cells, fluorescence, 16.8 nM, replicate 1: unit not given here.
Throughout, for BODIPY-LDL uptake by HepG2 cells, fluorescence, 16.8 nM, replicate 2: unit not given here.
Throughout, for BODIPY-LDL uptake by HepG2 cells, fluorescence, 4.2 nM, replicate 1: unit not given here.
Throughout, for BODIPY-LDL uptake by HepG2 cells, fluorescence, 4.2 nM, replicate 2: unit not given here.
Throughout, for BODIPY-LDL uptake by HepG2 cells, fluorescence, 66.7 nM, replicate 1: unit not given here.
Throughout, for BODIPY-LDL uptake by HepG2 cells, fluorescence, 66.7 nM, replicate 2: unit not given here.

B1: Evolocumab (antibody, V domains shown)
VH: QVQLVQSGAEVKKPGASVKVSCKASGYTLTSYGISWVRQAPGQGLEWMGWVSFYNGNTNYAQKLQGRGTMTTDPSTSTAYMELRSLRSDDTAVYYCARGYGMDVWGQGTTVTVSS
VL: QSALTQPASVSGSPGQSITISCTGTSSDVGGYNSVSWYQQHPGKAPKLMIYEVSNRPSGVSNRFSGSKSGNTASLTISGLQAEDEADYYCNSYTSTSMVFGGGTKLTVL
Fluorescence Signal Value [1]: 5780 | Fluorescence Signal Value [2]: 6810 | Fluorescence Signal Value [3]: 5100 | BODIPY-LDL uptake by HepG2 cells, fluorescence, 4.2 nM, replicate 1 [4]: 0.351 | BODIPY-LDL uptake by HepG2 cells, fluorescence, 4.2 nM, replicate 2 [4]: 0.36 | BODIPY-LDL uptake by HepG2 cells, fluorescence, 16.8 nM, replicate 1 [4]: 0.355 | BODIPY-LDL uptake by HepG2 cells, fluorescence, 16.8 nM, replicate 2 [4]: 0.363 | BODIPY-LDL uptake by HepG2 cells, fluorescence, 66.7 nM, replicate 1 [4]: 0.724 | BODIPY-LDL uptake by HepG2 cells, fluorescence, 66.7 nM, replicate 2 [4]: 0.778 | Fluorescence Signal Value [5]: 6990 | Kd [6]: 114 nM | Kd [7]: 1.03 nM | Fluorescence Signal Value [8]: 4800

B2: ADI-02396 (antibody, human IgG2, kappa, V domains shown)
VH: QLQLQESGPGLVKPSETLSLTCTVSGGSISSSSYYWGWIRQPPGKGLEWIGSIYYSGSTYYNPSLKSRVTISVDTSKNQFSLKLSSVTAADTAVYYCAREGSGVVPAAGPNWFDPWGQGTLVTVSS
VL: EIVLTQSPATLSLSPGERATLSCRASQSVSSYLAWYQQKPGQAPRLLIYDASNRATGIPARFSGSGSGTDFTLTISSLEPEDFAVYYCQQRRNWFTFGGGTKVEIKR
notes: IgG; also called parent antibody
BODIPY-LDL uptake by HepG2 cells, fluorescence, 4.2 nM, replicate 1 [4]: 0.366 | BODIPY-LDL uptake by HepG2 cells, fluorescence, 4.2 nM, replicate 2 [4]: 0.352 | BODIPY-LDL uptake by HepG2 cells, fluorescence, 16.8 nM, replicate 1 [4]: 0.404 | BODIPY-LDL uptake by HepG2 cells, fluorescence, 16.8 nM, replicate 2 [4]: 0.341 | BODIPY-LDL uptake by HepG2 cells, fluorescence, 66.7 nM, replicate 1 [4]: 0.432 | BODIPY-LDL uptake by HepG2 cells, fluorescence, 66.7 nM, replicate 2 [4]: 0.401 | Kd [6]: 78.3 nM | Kd [7]: 9.5 nM

B3: ADI-10088 Fab (Fab, V domains shown)
VH: QLQLQESGPGLVKPSETLSLTCTVSGGSIGSSSYYWAWIRQPPGKGLEWIGSINYRGSTYYNPSLKSRVTISVDTSKNQFSLKLSSVTAADTAVYYCARENSGVVPAAGPNWFDPWGQGTLVTVSS
VL: EIVLTQSPATLSLSPGERATLSCRASQSVSSYLAWYQQKPGQAPRLLIYDASNRATGIPARFSGSGSGTDFTLTISSLEPEDFAVYYCQQRRNWFTFGGGTKVEIKR
Kd [9]: 0.016 nM | Kd [10]: 0.087 nM | Kd [11]: 0.01 nM

B4: ADI-09112 Fab (Fab, V domains shown)
VH: QLQLQESGPGLVKPSETLSLTCTVSGGSISSSSYYWGWIRQPPGKGLEWIGSIYYSGSTYYNPFLKSRVTISVDTSKNQFSLKLSSVTAADTAVYYCARENSGVVPAAGPNWFGPWGQGTLVTVSS
VL: EIVLTQSPATLSLSPGERATLSCRASQSVSSYLAWYQQKPGQAPRLLIYDASNRATGIPARFSGSGSGTDFTLTISSLEPEDFAVYYCQQRRNWFTFGGGTKVEIKR
Kd [10]: 1.2 nM | Kd [11]: 0.22 nM

B5: ADI-10086 (antibody, human IgG2, kappa, V domains shown)
VH: QLQLQESGPGLVKPSETLSLTCTVSGGSIRSSAYYWGWIRQPPGKGLEWIGSINYRGSTYYNPSLKSRVTISVDTSKNQFSLKLSSVTAADTAVYYCARENSGVVPAAGPNWFGPWGQGTLVTVSS
VL: EIVLTQSPATLSLSPGERATLSCRASQSVSSYLAWYQQKPGQAPRLLIYDASNRATGIPARFSGSGSGTDFTLTISSLEPEDFAVYYCQQRRNWFTFGGGTKVEIKR
notes: IgG
Fluorescence Signal Value [1]: 5830 | Fluorescence Signal Value [2]: 6920 | Fluorescence Signal Value [3]: 5130 | Fluorescence Signal Value [5]: 6600 | Kd [6]: 0.607 nM | Kd [7]: 0.336 nM | Fluorescence Signal Value [8]: 5270

B6: ADI-10090 (antibody, human IgG2, kappa, V domains shown)
VH: QLQLQESGPGLVKPSETLSLTCTVSGGSIWSSSYYWTWIRQPPGKGLEWIGSINYRGSTYYNPSLKSRVTISVDTSKNQFSLKLSSVTAADTAVYYCARENSGVVPAAGPNWFDPWGQGTLVTVSS
VL: EIVLTQSPATLSLSPGERATLSCRASQSVSSYLAWYQQKPGQAPRLLIYDASNRATGIPARFSGSGSGTDFTLTISSLEPEDFAVYYCQQRRNWFTFGGGTKVEIKR
notes: IgG
Fluorescence Signal Value [1]: 5810 | Fluorescence Signal Value [2]: 6750 | Fluorescence Signal Value [3]: 4810 | Fluorescence Signal Value [5]: 6810 | Kd [6]: 0.674 nM | Kd [7]: 0.352 nM | Fluorescence Signal Value [8]: 4820

B7: Bococizumab (antibody, V domains shown)
VH: QVQLVQSGAEVKKPGASVKVSCKASGYTFTSYYMHWVRQAPGQGLEWMGEISPFGGRTNYNEKFKSRVTMTRDTSTSTVYMELSSLRSEDTAVYYCARERPLYASDLWGQGTTVTVSS
VL: DIQMTQSPSSLSASVGDRVTITCRASQGISSALAWYQQKPGKAPKLLIYSASYRYTGVPSRFSGSGSGTDFTFTISSLQPEDIATYYCQQRYSLWRTFGQGTKLEIK
Fluorescence Signal Value [1]: 6270 | Fluorescence Signal Value [2]: 6960 | Fluorescence Signal Value [3]: 5310 | Fluorescence Signal Value [5]: 7100 | Kd [6]: 0.663 nM | Kd [7]: 0.386 nM | Fluorescence Signal Value [8]: 6040

B8: Lodelcizumab (antibody, V domains shown)
VH: QVQLVQSGAEVKKPGASVKVSCKASGYTFSTMYMSWVRQAPGQGLEWMGRIDPANEHTNYAQKFQGRVTMTRDTSISTAYMELSRLTSDDTAVYYCARSYYYYNMDYWGQGTLVTVSS
VL: QIVLTQSPATLSVSPGERATLSCRASQSVSYMHWYQQKPGQAPRLLIYGVFRRATGIPDRFSGSGSGTDFTLTIGRLEPEDFAVYYCLQWSSDPPTFGQGTKLEIK
Fluorescence Signal Value [1]: 7330 | Fluorescence Signal Value [2]: 8760 | Fluorescence Signal Value [3]: 8760 | BODIPY-LDL uptake by HepG2 cells, fluorescence, 4.2 nM, replicate 1 [4]: 0.318 | BODIPY-LDL uptake by HepG2 cells, fluorescence, 4.2 nM, replicate 2 [4]: 0.352 | BODIPY-LDL uptake by HepG2 cells, fluorescence, 16.8 nM, replicate 1 [4]: 0.317 | BODIPY-LDL uptake by HepG2 cells, fluorescence, 16.8 nM, replicate 2 [4]: 0.314 | BODIPY-LDL uptake by HepG2 cells, fluorescence, 66.7 nM, replicate 1 [4]: 0.33 | BODIPY-LDL uptake by HepG2 cells, fluorescence, 66.7 nM, replicate 2 [4]: 0.312 | Fluorescence Signal Value [5]: 8400 | Kd [7]: 1.51 nM | Fluorescence Signal Value [8]: 7330

B9: Alirocumab (antibody, V domains shown)
VH: EVQLVESGGGLVQPGGSLRLSCAASGFTFNNYAMNWVRQAPGKGLDWVSTISGSGGTTNYADSVKGRFIISRDSSKHTLYLQMNSLRAEDTAVYYCAKDSNWGNFDLWGRGTLVTVSS
VL: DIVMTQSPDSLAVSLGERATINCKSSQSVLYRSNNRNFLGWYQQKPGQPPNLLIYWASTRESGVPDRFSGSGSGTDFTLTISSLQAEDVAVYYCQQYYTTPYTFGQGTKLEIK
Fluorescence Signal Value [1]: 5750 | Fluorescence Signal Value [2]: 6980 | Fluorescence Signal Value [3]: 4950 | BODIPY-LDL uptake by HepG2 cells, fluorescence, 4.2 nM, replicate 1 [4]: 0.364 | BODIPY-LDL uptake by HepG2 cells, fluorescence, 4.2 nM, replicate 2 [4]: 0.37 | BODIPY-LDL uptake by HepG2 cells, fluorescence, 16.8 nM, replicate 1 [4]: 0.396 | BODIPY-LDL uptake by HepG2 cells, fluorescence, 16.8 nM, replicate 2 [4]: 0.392 | BODIPY-LDL uptake by HepG2 cells, fluorescence, 66.7 nM, replicate 1 [4]: 0.686 | BODIPY-LDL uptake by HepG2 cells, fluorescence, 66.7 nM, replicate 2 [4]: 0.716 | Fluorescence Signal Value [5]: 7170 | Kd [6]: 2.66 nM | Kd [7]: 0.0301 nM | Fluorescence Signal Value [8]: 4930
